B1: HDV Ribozyme (parent)
chain: GGCCGGCAUGGUCCCAGCCUCCUCGCUGGCGCCGGCUGGGCAACAUUCCGAGGGGACCGUCCCCUCGGUAAUGGCGAAUGGGACCCA

The variants in this series derive from B1. The experiment in a line: self-cleavage, relative activity (ratio to wild type); higher = more cleavage; co-transcriptional.
Take GGCCGACAUGGUCCCAGCCUCCUCGCUGGCGCCGGCUGGGCAACAUUCCGAGGGGACCGUCCCCUCGGCAAUGGCGAAUGGGACCCA [G6A U69C]: the self-cleavage was found to be 0.631.
To GGCCGACAUGGUCCCAGCCUCCUCGCUGGCGCCGGCAGGGCAACAUUCCGAGGGGACCGUCCCCUCGGUAAUGGCGAAUGGGACCCA [G6A U37A] belongs 0.214; to GGCCGACAUGGGCCCAGCCUCCUCGCUGGCGCCGGCUGGGCAACAUUCCGAGGGGACCGUCCCCUCGGUAAUGGCGAAUGGGACCCA [G6A U12G], 0.415.
Take GGCCGACAUGGACCCAGCCUCCUCGCUGGCGCCGGCUGGGCAACAUUCCGAGGGGACCGUCCCCUCGGUAAUGGCGAAUGGGACCCA [G6A U12A]: the self-cleavage is 0.253.
As to GGCCGAUAUGGUCCCAGCCUCCUCGCUGGCGCCGGCUGGGCAACAUUCCGAGGGGACCGUCCCCUCGGUAAUGGCGAAUGGGACCCA [G6A C7U], the self-cleavage was found to be 0.283.
To GGCCGACAUGGUCCCAGCCUCCUCGCUGCCGCCGGCUGGGCAACAUUCCGAGGGGACCGUCCCCUCGGUAAUGGCGAAUGGGACCCA [G6A G29C] belongs 0.0326.
Under GGCCUGCAUGGUCCCAGCCUCCUCGCUGGCGCCGGCAGGGCAACAUUCCGAGGGGACCGUCCCCUCGGUAAUGGCGAAUGGGACCCA [G5U U37A] stands 0.0723; under GGCCUGCAUGGUCCCAGCCUCCUCGCUGGCGCCGGCUGGGCAACAUUCCGAGGGGACCGUCCCCCCGGUAAUGGCGAAUGGGACCCA [G5U U65C], 0.723.
To GGCCGACAUGAUCCCAGCCUCCUCGCUGGCGCCGGCUGGGCAACAUUCCGAGGGGACCGUCCCCUCGGUAAUGGCGAAUGGGACCCA [G6A G11A] belongs 0.128; to GGCCGACAUGGUCCCAACCUCCUCGCUGGCGCCGGCUGGGCAACAUUCCGAGGGGACCGUCCCCUCGGUAAUGGCGAAUGGGACCCA [G6A G17A], 0.318.
For GGCCGACAUGGUCCCACCCUCCUCGCUGGCGCCGGCUGGGCAACAUUCCGAGGGGACCGUCCCCUCGGUAAUGGCGAAUGGGACCCA [G6A G17C], the self-cleavage stood at 0.0923.
To GGCCUGCAUGGGCCCAGCCUCCUCGCUGGCGCCGGCUGGGCAACAUUCCGAGGGGACCGUCCCCUCGGUAAUGGCGAAUGGGACCCA [G5U U12G] belongs 0.356; to GGCCGACAUGGUCCCAGCCUCCUCGCUGGCGCCGGCUGGGCAACAUUCCGAGGGGACCGUCCCCCCGGUAAUGGCGAAUGGGACCCA [G6A U65C], 0.554; to GGCCGACAUGGUCCGAGCCUCCUCGCUGGCGCCGGCUGGGCAACAUUCCGAGGGGACCGUCCCCUCGGUAAUGGCGAAUGGGACCCA [G6A C15G], 0.133.
Under GGCCGACAUGGUCCCAGCCUCCUCGCUGGCGCCGGCUGGGCAACAUUCCGAGGGGACCGUCCCCUCGGUAAUGGCGAAUGGGAACCA [G6A C84A] stands 0.431; under GGCCGACAUGGUCCCAGCCUCCUCGCUGGCGCCGGCUGGGCAACAUUCCGAGCGGACCGUCCCCUCGGUAAUGGCGAAUGGGACCCA [G6A G53C], 0.928; under GGCCGACAUUGUCCCAGCCUCCUCGCUGGCGCCGGCUGGGCAACAUUCCGAGGGGACCGUCCCCUCGGUAAUGGCGAAUGGGACCCA [G6A G10U], 0.0963.
For GGCCGACUUGGUCCCAGCCUCCUCGCUGGCGCCGGCUGGGCAACAUUCCGAGGGGACCGUCCCCUCGGUAAUGGCGAAUGGGACCCA [G6A A8U], the self-cleavage was 0.475.
In the case of GGCCGACAUGGUCCCAGCCUCCUCGCUGGCGCCGGCUGGGCAACAUUCCGACGGGACCGUCCCCUCGGUAAUGGCGAAUGGGACCCA [G6A G52C], the self-cleavage was 0.831.
With GGCCGACAUGGUCCCAGCCUCCUCGCUGGCGCCGGCUGGGCAACAUUCCGAGGGGACCCUCCCCUCGGUAAUGGCGAAUGGGACCCA [G6A G59C], the self-cleavage worked out at 0.587.
Under GGCCGACAUGGUCCCAGCCUCCUCGCUGGCGCCGGCUGGGCAACAUUCCCAGGGGACCGUCCCCUCGGUAAUGGCGAAUGGGACCCA [G6A G50C] stands 0.767.
Take GGCCGACAUGGUCCCAGCCUCCUCGAUGGCGCCGGCUGGGCAACAUUCCGAGGGGACCGUCCCCUCGGUAAUGGCGAAUGGGACCCA [G6A C26A]: the self-cleavage was found to be 0.888.
As to GGCCUGCAUGGUCCCAGCCUCCUCGCUGGCGCCGGCUGGGCAACAUACCGAGGGGACCGUCCCCUCGGUAAUGGCGAAUGGGACCCA [G5U U47A], the self-cleavage was found to be 0.378.
Under GGCCGACAUGGUCCCAGCCUCCUCGCUGGCGCCGGCUGGGCAACAUUCCGAGGGGACCGUCCCCUCUGUAAUGGCGAAUGGGACCCA [G6A G67U] stands 0.692.
For GGCCGACAUGGUCCCAGCCUCCUCGCUGGCGCCGGCUGGGCAACAUUCCGAGGGGAGCGUCCCCUCGGUAAUGGCGAAUGGGACCCA [G6A C57G], the self-cleavage came out at 0.643.
For GGCCGACAUGGUCCCAGCCUCCUCGCUGGCGCCGGCUGGGCAACAUUCCGAGGGGAACGUCCCCUCGGUAAUGGCGAAUGGGACCCA [G6A C57A], the self-cleavage was found to be 0.966.
For GGCCUGCAUGGUCCCAGCCACCUCGCUGGCGCCGGCUGGGCAACAUUCCGAGGGGACCGUCCCCUCGGUAAUGGCGAAUGGGACCCA [G5U U20A], the self-cleavage was found to be 0.
To GGCCGACAUGGUGCCAGCCUCCUCGCUGGCGCCGGCUGGGCAACAUUCCGAGGGGACCGUCCCCUCGGUAAUGGCGAAUGGGACCCA [G6A C13G] belongs 0.
Under GGCCGACAUGGUCCCAGCCUACUCGCUGGCGCCGGCUGGGCAACAUUCCGAGGGGACCGUCCCCUCGGUAAUGGCGAAUGGGACCCA [G6A C21A] stands 0.0707; under GGCCGACAUGGUCCCAGCCUCCUCGCUGGCGCCGGCUGGGCAACAUUCCGAGGAGACCGUCCCCUCGGUAAUGGCGAAUGGGACCCA [G6A G54A], 0.471; under GGCCGACAUGGUCCCAGCCUCCUCGCUGGCGCCGGCUGGGCAACAUUCCGAGGUGACCGUCCCCUCGGUAAUGGCGAAUGGGACCCA [G6A G54U], 0.819.
Regarding GGCCGACAAGGUCCCAGCCUCCUCGCUGGCGCCGGCUGGGCAACAUUCCGAGGGGACCGUCCCCUCGGUAAUGGCGAAUGGGACCCA [G6A U9A], the self-cleavage worked out at 0.942.
GGCCGACAUGGUCCCAGCCUCCUCGCUGGCGCCGGCUGGGCAACAUUCCGAGGGGACAGUCCCCUCGGUAAUGGCGAAUGGGACCCA [G6A C58A]: the self-cleavage was 0.724.
With GGCCGACAUGGUCCCAGCCUCCUCGCUGGCGCCGGCUGGGCAACAUUCCGAGGGGACCGUCCUCUCGGUAAUGGCGAAUGGGACCCA [G6A C63U], the self-cleavage turned out to be 0.743.
To GGCCGACAUGGUCCCAGCCUCCUCGCUGGCGCCGGCUGGGCAACAUUCCGAGGGGACCGUCCGCUCGGUAAUGGCGAAUGGGACCCA [G6A C63G] belongs 0.601.
Under GGCCGACAUGGUCCCAGCCUCCUCGCUGGGGCCGGCUGGGCAACAUUCCGAGGGGACCGUCCCCUCGGUAAUGGCGAAUGGGACCCA [G6A C30G] stands 0.0678.
To GGCCGACAUGGUCCCAGCCUCCUCGCUGGCGCCGGCUGGGCAACAUUCCGAGGGAACCGUCCCCUCGGUAAUGGCGAAUGGGACCCA [G6A G55A] belongs 0.712; to GGCCGACAUGGUCCCAGCCUCCUCGCUGGCGCCGGCUGGGCAACAUUCCGAGGGUACCGUCCCCUCGGUAAUGGCGAAUGGGACCCA [G6A G55U], 0.831.
For GGCCGACAUGGUCCCAGCUUCCUCGCUGGCGCCGGCUGGGCAACAUUCCGAGGGGACCGUCCCCUCGGUAAUGGCGAAUGGGACCCA [G6A C19U], the self-cleavage amounted to 0.0875.
Under GGCCGACAUGGUCCCAGCCUCCUCGCUGGCGCCGGCUGGGCAGCAUUCCGAGGGGACCGUCCCCUCGGUAAUGGCGAAUGGGACCCA [G6A A43G] stands 0.277.
Under GGCCGACAUGGUCCCAGCCUCCUCGCUGGCGCCGGCUGGGCACCAUUCCGAGGGGACCGUCCCCUCGGUAAUGGCGAAUGGGACCCA [G6A A43C] stands 0.0489.
To GGCCGACAUGGUCCCAGCCUCCUCGCUGGCGCCGGCUGGGCAACAUUCCGAGGGGACCGUCCCCUCGGUAAUGGCGAAUGGGACCCG [G6A A87G] belongs 0.654; to GGCCUGCAUGGUCCCAGCCUCCCCGCUGGCGCCGGCUGGGCAACAUUCCGAGGGGACCGUCCCCUCGGUAAUGGCGAAUGGGACCCA [G5U U23C], 0.462.
Take GGCCGACAUGGUCCCAGCCUCCUCGCUGGCGCCGGCUGGGCAACAUUCCGAGGGGACCGUGCCCUCGGUAAUGGCGAAUGGGACCCA [G6A C61G]: the self-cleavage was determined as 0.712.
As to GGCCGACAUGGUCCCAGCCUCCUCGCUGGCGCCGGCUGGGCAACAUUCCGAGGGGACCGUCCCCUCGGUAAUGGCGAAUGGCACCCA [G6A G82C], the self-cleavage is 0.
As for GGCCGACAUGGUCCCAGCCUCCUCGCUGGCGCCAGCUGGGCAACAUUCCGAGGGGACCGUCCCCUCGGUAAUGGCGAAUGGGACCCA [G6A G34A], the self-cleavage came out at 0.0287.
Under GGCCGACAUGGUCCCAGCCUCCUCGCUGGCGCCGGCUGGGCAACAUCCCGAGGGGACCGUCCCCUCGGUAAUGGCGAAUGGGACCCA [G6A U47C] stands 0.525; under GGCCGACAUGGUCCCAGCCUCCUCGCUGGCGCCGGCUGGGCAACAUGCCGAGGGGACCGUCCCCUCGGUAAUGGCGAAUGGGACCCA [G6A U47G], 1.01.
As for GGCCUGCAUGGUCCCAGCCUCCUCGCUGGCGCCGGCUGGGCAACAUUCCGAGGGGACCGUCCCCUCGGGAAUGGCGAAUGGGACCCA [G5U U69G], the self-cleavage was 0.485.
Under GGCCGACAUGGUCCCAGCCUCCUCGCUAGCGCCGGCUGGGCAACAUUCCGAGGGGACCGUCCCCUCGGUAAUGGCGAAUGGGACCCA [G6A G28A] stands 0.0817; under GGCCGACAUGGUCCCAGCCUCCUCGCUGGCUCCGGCUGGGCAACAUUCCGAGGGGACCGUCCCCUCGGUAAUGGCGAAUGGGACCCA [G6A G31U], 0.219; under GGCCGACAUGGUCCCAGCCUCGUCGCUGGCGCCGGCUGGGCAACAUUCCGAGGGGACCGUCCCCUCGGUAAUGGCGAAUGGGACCCA [G6A C22G], 0.0739.
To GGCCGACAUGGUCCCAGCCUCCUCGCUGGCGCCGGCUGGGCAACCUUCCGAGGGGACCGUCCCCUCGGUAAUGGCGAAUGGGACCCA [G6A A45C] belongs 0.0519; to GGCCGACAUGGUCCCAGCCUCCUCGCUGGCGCCGGCUGGGCAACGUUCCGAGGGGACCGUCCCCUCGGUAAUGGCGAAUGGGACCCA [G6A A45G], 0.425.
GGCCGACAUGGUCCCAGCCUCCUCGCUGGCGCCGCCUGGGCAACAUUCCGAGGGGACCGUCCCCUCGGUAAUGGCGAAUGGGACCCA [G6A G35C]: the self-cleavage is 0.119.
As to GGCCGACAUGGUCCCAGCCUCCUCGCUGGCGCCGGCUGGGCAACACUCCGAGGGGACCGUCCCCUCGGUAAUGGCGAAUGGGACCCA [G6A U46C], the self-cleavage came out at 0.508.
Under GGCCGACAUGGUCCCAGCCUCCUCGCUGGCGCCGGCUGGUCAACAUUCCGAGGGGACCGUCCCCUCGGUAAUGGCGAAUGGGACCCA [G6A G40U] stands 0.911; under GGCCGACAUGGUCCCAGCCUCCUCGCUGGCGCCGGCUGGGCAACAUUCCGAGGGGACCGUCCCCUCGGUAAUGGCUAAUGGGACCCA [G6A G76U], 0.881; under GGCCGACAUGGUCCCAGCCUCCUCGCUGGCGACGGCUGGGCAACAUUCCGAGGGGACCGUCCCCUCGGUAAUGGCGAAUGGGACCCA [G6A C32A], 0.277.
Under GGCCGACAUGGUCCCAGCCUCCUCGCUGGCGCCGGCUGGGCAACAUUCCGAGGGGACCGUCCCCUCGGUAAUGGCGAAUGGGACGCA [G6A C85G] stands 0.608; under GGCCGACAUGGUCCCAGCCUCCUCGCUGGCGCCGGCUGGGCAACAUUCCGAGGGGACCGUCCCCUCGGUAAUGGCGAAUGGGACUCA [G6A C85U], 0.735.
Regarding GGCCGACAUGGUCCCAGCCUCCUCGCUGGCGCCGGCUGGGCAACAUUCCGAGGGGACCGUCACCUCGGUAAUGGCGAAUGGGACCCA [G6A C62A], the self-cleavage was 0.543.
Under GGCCGACAUGGUCCCAGCCUCCUCGCGGGCGCCGGCUGGGCAACAUUCCGAGGGGACCGUCCCCUCGGUAAUGGCGAAUGGGACCCA [G6A U27G] stands 0.643; under GGCCGACAUGGUCCCAGCCUCCUCGCAGGCGCCGGCUGGGCAACAUUCCGAGGGGACCGUCCCCUCGGUAAUGGCGAAUGGGACCCA [G6A U27A], 0.514.

Values taken from the RNAGym collection of RNA variant scans (doi:10.7554/elife.80360).
